This is an account of results in article PMC3068300 (Proteins, 2010).

The data set concerns the molecule itself. As to the kind of experiment: SEC. (In general: In gel filtration, larger molecules generally elute earlier.)

B1: Mycobacterium tuberculosis Rv2704 (natural protein)
chain: ASRTMVSSGSEFESAVGYSRAVRIGPLVVVAGTTGSGDDIAAQTRDALRRIEIALGQAGATLADVVRTRIYVTDISRWREVGEVHAQAFGKIRPVTSMVEVTALIAPGLLVEIEADAYVGSAVADRNSGAGPKDPSPAGG
As to B1, the stoichiometry N (in general, a count of units in the complex or per binding partner) was found to be 3.
